*1 amine or outer side, *2 acyl side, *3 side chain or, on linkers, in order; H or OH if unused. Bridges are numbered along the chain shown (N, C = ends). Where no end group is shown, it is not given here. Side-chain parts run from the residue outwards. [ ]: non-standard residue; d: D form. The star is where a group is joined. C20 diacid = O=C(O)CCCCCCCCCCCCCCCCCCC(=O)*; γGlu = O=C(O)[C@H](CCC(=O)[*:2])N[*:1]; Hyp = O=C(O)[C@@H]1C[C@@H](O)CN1; Cit = NC(=O)NCCC[C@H](N)C(=O)O; Orn = NCCC[C@H](N)C(=O)O; Dab = NCC[C@H](N)C(=O)O; Dap = NC[C@H](N)C(=O)O; AEEA = NCCOCCOCC(=O)O; Sar = CNCC(=O)O
T1: human amylin receptor (AMY3) on CHO-K1/Ga15/AMY3 cells (human, UniProt P30988 25-474; O60896 24-148)
T1 sequence (looked up) 1: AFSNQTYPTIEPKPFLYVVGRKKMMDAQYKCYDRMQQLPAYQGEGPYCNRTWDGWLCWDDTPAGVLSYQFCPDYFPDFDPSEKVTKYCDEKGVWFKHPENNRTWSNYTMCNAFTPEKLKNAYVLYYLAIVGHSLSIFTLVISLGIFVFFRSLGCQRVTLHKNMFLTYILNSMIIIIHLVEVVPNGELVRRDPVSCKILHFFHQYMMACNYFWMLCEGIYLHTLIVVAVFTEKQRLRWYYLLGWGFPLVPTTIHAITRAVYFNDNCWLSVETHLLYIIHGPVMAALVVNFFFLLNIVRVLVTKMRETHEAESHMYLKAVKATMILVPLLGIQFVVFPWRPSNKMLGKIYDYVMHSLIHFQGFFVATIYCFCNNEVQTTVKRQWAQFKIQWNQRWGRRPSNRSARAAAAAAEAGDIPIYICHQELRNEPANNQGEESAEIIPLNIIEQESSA
T1 sequence (looked up) 2: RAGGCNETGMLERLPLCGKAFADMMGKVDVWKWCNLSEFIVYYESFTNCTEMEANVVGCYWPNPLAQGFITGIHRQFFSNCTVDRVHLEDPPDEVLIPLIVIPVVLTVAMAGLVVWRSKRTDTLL


Target: T1, human amylin receptor (AMY3) on …
Assay: cell-based or functional assay

| Binder | EC50, CRE-luciferase assay [nM] |
| --- | --- |
| RCNTATCATQRLAEFLRHSSNNLK([γGlu-C20 diacid])PILPPTNVGSGT[Hyp]-NH2 (disulfide 2-7 (inferred)) [PD041] | 0.259 |
| {C20 diacid-γGlu}-KCNTATCATQRLADFLRHSSNNLRPILPPTNVGSNTP-NH2 (disulfide 2-7 (inferred)) [PD161] | 0.026 |
| {C20 diacid-γGlu}-KCNTATCATQRLADFLRHSSNNLHPILPPTNVGSNTP-NH2 (disulfide 2-7 (inferred)) [PD162] | 0.035 |
| {C20 diacid-γGlu}-KCNTATCATQRLADFLRHSSNNL[Dab]PILPPTNVGSNTP-NH2 (disulfide 2-7 (inferred)) [PD169] | 0.039 |
| {C20 diacid-γGlu}-KCNTATCATQRLADFLRHSSNNL[aK]PILPPTNVGSNTP-NH2 (disulfide 2-7 (inferred)) [PD167] | 0.05 |
| {C20 diacid-γGlu}-KCNTATCATQRLADFLRHSSNNL[Cit]PILPPTNVGSNTP-NH2 (disulfide 2-7 (inferred)) [PD171] | 0.053 |
| {C20 diacid-γGlu}-KCNTATCATQRLADFLRHSSNNL[Dap]PILPPTNVGSNTP-NH2 (disulfide 2-7 (inferred)) [PD168] | 0.041 |
| {C20 diacid-γGlu}-KCNTATCATQRLADFLRHSSNNLDPILPPTNVGSNTP-NH2 (disulfide 2-7 (inferred)) [PD164] | 0.111 |
| {C20 diacid-γGlu}-KCNTATCATQRLADFLRHSSNNL[Sar]PILPPTNVGSNTP-NH2 (disulfide 2-7 (inferred)) [PD172] | 0.075 |
| {C20 diacid-γGlu}-KCNTATCATQRLADFLRHSSNNLNPILPPTNVGSNTP-NH2 (disulfide 2-7 (inferred)) [PD165] | 0.05 |
| {C20 diacid-γGlu}-KCNTATCATQRLADFLRHSSNNLKPILPPTNVGSNTP-NH2 (disulfide 2-7 (inferred)) [PD160] | 0.035 |
| RCNTATCATQRLAEFLRHSSK([AEEA-AEEA-γGlu-C20 diacid])NLGPILPPTNVGSNTP-NH2 (disulfide 2-7 (inferred)) [PD001] | 0.042 |
| {C20 diacid-γGlu}-KCNTATCATQRLADFLRHSSNNL[Orn]PILPPTNVGSNTP-NH2 (disulfide 2-7 (inferred)) [PD170] | 0.041 |
| {C20 diacid-γGlu}-KCNTATCATQRLADFLRHSSNNLSPILPPTNVGSNTP-NH2 (disulfide 2-7 (inferred)) [PD166] | 0.054 |
| {C20 diacid-γGlu}-KCNTATCATQRLADFLRHSSNNLPPILPPTNVGSNTP-NH2 (disulfide 2-7 (inferred)) [PD163] | 0.084 |

From patent US20260115256A1 (HANGZHOU SCIWIND BIOSCIENCES, published 2026)
